US20200199533A1 (KING ABDULLAH UNIVERSITY OF SCIENCE AND TECHNOLOGY, published 2020)

What was measured:
[1] = target: T1, CD43, native glycoprotein from KG1a cells (human, UniProt P16150 20-400, native glycosylation); assay: SPR; CD43 captured from KG1a lysate on polyclonal CD43 Ab, E-Ig injected, 150 mM NaCl; apparent rate constant; mean ± SEM
T1 construct: mature
T1 sequence (looked up): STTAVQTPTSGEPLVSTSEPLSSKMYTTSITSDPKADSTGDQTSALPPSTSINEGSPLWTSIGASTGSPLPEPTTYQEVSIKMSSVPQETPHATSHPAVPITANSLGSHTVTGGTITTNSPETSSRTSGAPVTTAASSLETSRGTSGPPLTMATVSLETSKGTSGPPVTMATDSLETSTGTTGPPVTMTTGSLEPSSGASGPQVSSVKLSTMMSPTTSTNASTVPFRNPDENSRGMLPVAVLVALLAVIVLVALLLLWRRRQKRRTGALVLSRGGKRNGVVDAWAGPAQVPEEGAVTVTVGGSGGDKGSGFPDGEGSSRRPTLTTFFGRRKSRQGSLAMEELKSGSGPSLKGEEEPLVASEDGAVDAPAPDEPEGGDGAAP

[2] = target: T2, PSGL-1, native glycoprotein from human HSPCs (KG1a, CD34^pos-BM) (human, UniProt Q14242 42-412, native glycosylation and tyrosine sulfation); assay: SPR; PSGL-1 captured from KG1a lysate on KPL-1-mAb, E-Ig injected, 150 mM NaCl; apparent rate constant; mean ± SEM
T2 construct: mature; also called P-selectin glycoprotein ligand-1
T2 sequence (looked up): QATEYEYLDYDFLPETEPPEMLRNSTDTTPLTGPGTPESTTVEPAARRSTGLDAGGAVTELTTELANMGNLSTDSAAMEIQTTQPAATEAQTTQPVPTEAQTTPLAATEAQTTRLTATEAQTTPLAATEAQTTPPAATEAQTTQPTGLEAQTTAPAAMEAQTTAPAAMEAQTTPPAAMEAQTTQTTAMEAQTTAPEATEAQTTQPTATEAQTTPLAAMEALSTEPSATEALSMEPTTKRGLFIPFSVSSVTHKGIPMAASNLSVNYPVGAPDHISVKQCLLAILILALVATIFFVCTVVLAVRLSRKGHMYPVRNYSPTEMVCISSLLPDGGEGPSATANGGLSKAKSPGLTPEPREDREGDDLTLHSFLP

[3] = target: T3, CD34, native glycoprotein from human HSPCs (KG1a, CD34^pos-BM, CD34^pos-UCB, CD34^pos-AML) (human, UniProt P28906 32-385, native glycosylation (about 120-130 kDa form); sialylated O-glycans and tyrosine sulfation are shown to matter for selectin binding); assay: SPR; CD34 captured from KG1a lysate on 563-mAb, E-Ig injected, 150 mM NaCl; apparent rate constant; 1st experiment
T3 construct: mature; also called E-selL CD34
T3 sequence (looked up): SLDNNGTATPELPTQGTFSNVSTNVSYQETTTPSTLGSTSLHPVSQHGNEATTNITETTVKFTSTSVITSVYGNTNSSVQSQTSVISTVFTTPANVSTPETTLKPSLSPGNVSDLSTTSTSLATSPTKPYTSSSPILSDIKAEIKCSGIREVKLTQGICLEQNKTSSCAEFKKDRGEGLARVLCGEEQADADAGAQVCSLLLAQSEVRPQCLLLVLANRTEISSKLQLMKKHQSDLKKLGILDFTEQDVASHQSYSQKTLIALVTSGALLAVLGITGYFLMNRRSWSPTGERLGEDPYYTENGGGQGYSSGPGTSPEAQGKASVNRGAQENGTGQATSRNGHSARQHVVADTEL

[4] = target: CD44 (HCELL), native glycoprotein from human HSPCs (KG1a, CD34^pos fraction) (human) (UniProt P16070); assay: SPR, from the binding isotherm; CD44 captured from KG1a lysate
Sequence of CD44 (HCELL), native glycoprotein from human HSPCs (KG1a, CD34^pos fraction) (human) (P16070 21-742): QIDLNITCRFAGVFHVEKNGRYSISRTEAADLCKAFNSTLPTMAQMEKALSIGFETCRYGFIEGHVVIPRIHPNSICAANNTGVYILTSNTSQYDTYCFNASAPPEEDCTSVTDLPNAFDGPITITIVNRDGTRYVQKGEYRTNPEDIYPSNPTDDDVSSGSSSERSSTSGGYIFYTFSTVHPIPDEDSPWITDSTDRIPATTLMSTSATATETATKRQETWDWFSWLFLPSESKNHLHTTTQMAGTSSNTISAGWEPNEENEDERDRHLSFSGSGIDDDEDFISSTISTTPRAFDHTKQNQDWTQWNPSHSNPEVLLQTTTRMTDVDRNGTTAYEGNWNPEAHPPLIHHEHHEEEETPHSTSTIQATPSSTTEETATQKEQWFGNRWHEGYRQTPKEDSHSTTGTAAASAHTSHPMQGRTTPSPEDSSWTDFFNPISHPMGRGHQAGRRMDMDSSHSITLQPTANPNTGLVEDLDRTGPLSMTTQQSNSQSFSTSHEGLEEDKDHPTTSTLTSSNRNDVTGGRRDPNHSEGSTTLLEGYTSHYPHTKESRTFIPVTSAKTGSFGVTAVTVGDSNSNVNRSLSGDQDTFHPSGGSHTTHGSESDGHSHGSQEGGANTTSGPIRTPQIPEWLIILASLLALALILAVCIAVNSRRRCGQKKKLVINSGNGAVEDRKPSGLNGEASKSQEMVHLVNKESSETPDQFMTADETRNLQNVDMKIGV

[5] = target: CD44 (HCELL), native glycoprotein from human HSPCs (KG1a, CD34^pos fraction) (human) (UniProt P16070); assay: SPR, decay after injection of E-Ig (177 nM, 1 mM CaCl2) over CD44 captured on Hermes-3; apparent constant that includes loss of CD44 from the mAb, s^-1 as in paragraph 58
[6] = target: T3, CD34, native glycoprotein from human …; assay: SPR; CD34 captured from KG1a lysate on 563-mAb, E-Ig injected (3.9-2000 nM), 150 mM NaCl; steady-state model; 1st experiment
[7] = target: T2, PSGL-1, native glycoprotein from human …; assay: SPR; PSGL-1 captured from KG1a lysate on KPL-1-mAb, E-Ig injected (3.9-2000 nM), 150 mM NaCl; steady-state model; 3rd experiment
[8] = target: T1, CD43, native glycoprotein from KG1a …; assay: SPR; CD43 captured from KG1a lysate on polyclonal CD43 Ab, E-Ig injected (3.9-2000 nM), 150 mM NaCl; steady-state model; mean ± SEM
[9] = target: CD44 (HCELL), native glycoprotein from human HSPCs (KG1a, CD34^pos fraction) (human) (UniProt P16070); assay: SPR; CD44 captured from KG1a lysate on Hermes-3-mAb, E-Ig injected, 150 mM NaCl; apparent rate constant; mean ± SEM
[10] = target: CD44 (HCELL), native glycoprotein from human HSPCs (KG1a, CD34^pos fraction) (human) (UniProt P16070); assay: SPR; CD44 captured from KG1a lysate on Hermes-3-mAb, E-Ig injected, 150 mM NaCl; apparent rate constant; 3rd experiment
[11] = target: T1, CD43, native glycoprotein from KG1a …; assay: SPR; CD43 captured from KG1a lysate on polyclonal CD43 Ab, E-Ig injected, 150 mM NaCl; apparent rate constant; 1st experiment

B1: recombinant E-selectin human immunoglobulin chimeric protein (Fc fusion)
chain: WSYNTSTEAMTYDEASAYCQQRYTHLVAIQNKEEIEYLNSILSYSPSYYWIGIRKVNNVWVWVGTQKPLTEEAKNWAPGEPNNRQKDEDCVEIYIKREKDVGMWNDERCSKKKLALCYTAACTNTSCSGHGECVETINNYTCKCDPGFSGLKCEQIVNCTALESPEHGSLVCSHPLGNFSYNSSCSISCDRGYLPSSMETMQCMSSGEWSAPIPACNVVECDAVTNPANGFVECFQNPGSFPWNTTCTFDCEEGFELMGAQSLQCTSSGNWDNEKPTCKAVTCRAVRQPQNGSVRCSHSPAGEFTFKSSCNFTCEEGFMLQGPAQVECTTQGQWTQQIPVCEAFQCTALSNPERGYMNCLPSASGSFRYGSSCEFSCEQGFVLKGSKRLQCGPTGEWDNEKPTCEAVRCDAVHQPPKGLVRCAHSPIGEFTYKSSCAFSCEEGFELHGSTQLECTSQGQWTEEVPSCQVVKCSSLAVPGKINMSCSGEPVFGTVCKFACPEGWTLNGSAARTCGATGHWSGLLPTCEAPTESNIP
- koff [1]: 0.00045 s⁻¹
- koff [2]: 0.00019 s⁻¹
- kon [2]: 793 M⁻¹ s⁻¹
- koff [3]: 0.00029 s⁻¹
- kon [3]: 2030 M⁻¹ s⁻¹
- % E-Ig binding assuming 1:1 stoichiometry [4]: 23%
- koff-apparent [5]: 0.00019 s⁻¹
- Kd [6]: 145 nM
- Kd [7]: 229 nM
- Kd [8]: 442 nM
- koff [9]: 0.00019 s⁻¹
- kon [9]: 903 M⁻¹ s⁻¹
- koff [10]: 0.000273 s⁻¹
- kon [10]: 1280 M⁻¹ s⁻¹
- koff [11]: 0.00048 s⁻¹
- kon [11]: 944 M⁻¹ s⁻¹
